The values below come from the supplement of paper PMC10126150.

In this data set the test system is ATP. The data set can be described thus: switch fluorescence ratio, 500 uM ATP over buffer (Cy3 cluster intensity, sum of 5 cycles each) (fold (ratio)); higher = stronger signal-on switching upon ATP binding; sequences stand for … in TCGTCGGCAGCGTCAGATGTGTATAAGAGACAGTTTTTTTTTTTTTTTTTTTTTTTTT…TC. As to conditions: aptamer strand: ATP DNA aptamer (quencher-CACCTGGGGGAGTATTGCGGAGGAAGG + anchor), 100 nM annealed; ATP concentration: 500 uM. In short, it runs like this:
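Cy3-labelled switching-strand clusters on a modified Illumina MiSeq flow-cell were annealed to 100 nM quencher-labelled ATP aptamer, imaged in selection buffer, then imaged after 15 min with 500 uM ATP at 22 °C. Five buffer/ATP cycles ran, with NaOH stripping and re-annealing between them. The fluorescence ratio is summed target-cycle over summed buffer-cycle Cy3 intensity per cluster, averaged per switch-domain sequence. Clusters outside 100-1000 RFU were excluded.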

± gives the standard deviation of the averaged measurements.
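Further: ATP exposure 15 min at 22 °C before imaging.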

Take ATTGAATTAG: the switch fluorescence ratio was determined as 0.961 ± 0.011.

On to ATTGACCCCT, for which the switch fluorescence ratio was 1.08 ± 0.015.

Take ATTGACGATC: the switch fluorescence ratio was determined as 0.994 ± 0.016.

Take ATTGACGTAC: the switch fluorescence ratio was found to be 1.76 ± 0.083.

Take ATTGAGCGGT: the switch fluorescence ratio came out at 0.983 ± 0.039.

As for ATTGAGGCTC, the switch fluorescence ratio amounted to 0.985 ± 0.012.

ATTGATGAGT: the switch fluorescence ratio is 0.993 ± 0.04.

With ATTGATGATT, the switch fluorescence ratio came out at 0.993 ± 0.0075.

On to ATTGATTAGG, for which the switch fluorescence ratio amounted to 0.988 ± 0.043.

As to ATTGATTCAA, the switch fluorescence ratio amounted to 0.996 ± 0.02.

Regarding ATTGATTGCT, the switch fluorescence ratio was 0.9989 ± 0.0036.

Take ATTGATTTTT: the switch fluorescence ratio stood at 1.01 ± 0.019.

Consider ATTGCATTAA, for which the switch fluorescence ratio stood at 0.985 ± 0.033.

For ATTGCGGGCC, the switch fluorescence ratio worked out at 1.02 ± 0.047.

As to ATTGCGGGGA, the switch fluorescence ratio turned out to be 0.9848 ± 0.0072.

Turning to ATTGCTTTTG, the switch fluorescence ratio was 0.99799 ± 0.00028.

As to ATTGGAAGAC, the switch fluorescence ratio was determined as 1.06 ± 0.12.

On to ATTGGACATC, for which the switch fluorescence ratio is 1.11 ± 0.11.

For the sequence ATTGGAGCGT, the switch fluorescence ratio came to 0.986 ± 0.0013.

In the case of ATTGGAGTAT, the switch fluorescence ratio turned out to be 0.9776 ± 0.0089.

Take ATTGGCACGG: the switch fluorescence ratio was 0.986 ± 0.034.

For ATTGGCTAGG, the switch fluorescence ratio turned out to be 0.999 ± 0.037.

Take ATTGGCTGAC: the switch fluorescence ratio came to 1.13 ± 0.029.

Take ATTGGCTGGT: the switch fluorescence ratio turned out to be 0.9998 ± 0.0052.

With ATTGGCTTTT, the switch fluorescence ratio was found to be 0.965 ± 0.011.

Consider ATTGGGAAGG, for which the switch fluorescence ratio worked out at 0.965 ± 0.039.

As for ATTGGGATGG, the switch fluorescence ratio was 1 ± 0.014.

ATTGGGCAGC: the switch fluorescence ratio came to 1 ± 0.027.

With ATTGGGGCTT, the switch fluorescence ratio is 1.01 ± 0.018.

ATTGGGGGTA: the switch fluorescence ratio turned out to be 0.977 ± 0.028.

With ATTGGGGGTT, the switch fluorescence ratio was 0.978 ± 0.018.

With ATTGGTAGGG, the switch fluorescence ratio came out at 0.9858 ± 0.004.

In the case of ATTGGTGCT, the switch fluorescence ratio was 1.001 ± 0.007.

On to ATTGGTGTAA, for which the switch fluorescence ratio stood at 1.01 ± 0.015.

In the case of ATTGGTTGGT, the switch fluorescence ratio came out at 0.978 ± 0.048.

As to ATTGTAATTT, the switch fluorescence ratio came out at 1.01 ± 0.026.

For ATTGTACGGT, the switch fluorescence ratio is 1.03 ± 0.013.

Consider ATTGTAGTCA, for which the switch fluorescence ratio was 0.973 ± 0.019.

On to ATTGTATTTT, for which the switch fluorescence ratio was determined as 0.979 ± 0.022.

Turning to ATTGTGAGGG, the switch fluorescence ratio is 0.993 ± 0.011.

Consider ATTGTGGATC, for which the switch fluorescence ratio amounted to 1.03 ± 0.031.

ATTGTGGGGC: the switch fluorescence ratio was 1 ± 0.022.

ATTGTGGGGG: the switch fluorescence ratio amounted to 0.991 ± 0.016.

Regarding ATTGTTATTG, the switch fluorescence ratio turned out to be 0.967 ± 0.065.

On to ATTGTTCTGG, for which the switch fluorescence ratio amounted to 1.004 ± 0.0021.

Take ATTGTTGAAT: the switch fluorescence ratio stood at 0.993 ± 0.015.

Regarding ATTGTTGGAT, the switch fluorescence ratio is 1.013 ± 0.0067.

In the case of ATTGTTTTAC, the switch fluorescence ratio came to 1.02 ± 0.014.

For the sequence ATTGTTTTAG, the switch fluorescence ratio was 1.01 ± 0.025.

Consider ATTGTTTTCG, for which the switch fluorescence ratio amounted to 1 ± 0.029.

Consider ATTTAAAATG, for which the switch fluorescence ratio turned out to be 0.994 ± 0.033.

As to ATTTAAGGTA, the switch fluorescence ratio turned out to be 1.01 ± 0.024.

ATTTAATATG: the switch fluorescence ratio is 0.97 ± 0.011.

Take ATTTAATCCT: the switch fluorescence ratio is 1.09 ± 0.038.

Take ATTTAATCGC: the switch fluorescence ratio is 1.01 ± 0.011.

Take ATTTACAAGT: the switch fluorescence ratio was 1.003 ± 0.0063.

In the case of ATTTACAGGT, the switch fluorescence ratio stood at 1.033 ± 0.0098.

Regarding ATTTACATTA, the switch fluorescence ratio was found to be 1.03 ± 0.021.

With ATTTACCGGT, the switch fluorescence ratio is 1.03 ± 0.022.

For the sequence ATTTACGGCA, the switch fluorescence ratio came out at 1.11 ± 0.021.

Regarding ATTTACGGTG, the switch fluorescence ratio is 1 ± 0.022.

Consider ATTTATATCT, for which the switch fluorescence ratio was 1 ± 0.015.

ATTTCACTGA: the switch fluorescence ratio was found to be 1.03 ± 0.011.

On to ATTTCACTTT, for which the switch fluorescence ratio came out at 0.9915 ± 0.0085.

Consider ATTTCAGAGG, for which the switch fluorescence ratio is 1.02 ± 0.017.

For the sequence ATTTCAGCGA, the switch fluorescence ratio stood at 1.09 ± 0.014.

With ATTTCAGGGG, the switch fluorescence ratio worked out at 1.09 ± 0.061.

On to ATTTCAGGGT, for which the switch fluorescence ratio was determined as 1 ± 0.015.

On to ATTTCGAATG, for which the switch fluorescence ratio is 0.9827 ± 0.0076.

Turning to ATTTCGATAT, the switch fluorescence ratio turned out to be 0.979 ± 0.038.

Turning to ATTTCGATGT, the switch fluorescence ratio stood at 1.03 ± 0.031.

With ATTTCGGAGA, the switch fluorescence ratio was 0.971 ± 0.011.

Take ATTTCGGGAG: the switch fluorescence ratio was 1.01 ± 0.052.

In the case of ATTTCGGTCA, the switch fluorescence ratio worked out at 0.9919 ± 0.0066.

As to ATTTCGTGCG, the switch fluorescence ratio is 1.01 ± 0.061.

Take ATTTCGTTGT: the switch fluorescence ratio came to 1 ± 0.07.

Turning to ATTTCTAGAT, the switch fluorescence ratio came to 1.024 ± 0.0093.

Take ATTTCTCTTG: the switch fluorescence ratio stood at 0.998 ± 0.025.

With ATTTGAAGTA, the switch fluorescence ratio came to 1.01 ± 0.04.

Regarding ATTTGACCAT, the switch fluorescence ratio is 1.13 ± 0.18.

Consider ATTTGACTTC, for which the switch fluorescence ratio stood at 1.12 ± 0.19.

Consider ATTTGAGAAA, for which the switch fluorescence ratio stood at 1.01 ± 0.025.

ATTTGAGGGG: the switch fluorescence ratio turned out to be 0.998 ± 0.035.

For ATTTGAGGTA, the switch fluorescence ratio is 1.01 ± 0.012.

For the sequence ATTTGAGGTG, the switch fluorescence ratio is 1.03 ± 0.038.

As for ATTTGATCTG, the switch fluorescence ratio came out at 0.985 ± 0.014.

Consider ATTTGATTCT, for which the switch fluorescence ratio stood at 0.984 ± 0.023.

Consider ATTTGATTGT, for which the switch fluorescence ratio worked out at 0.98 ± 0.034.

ATTTGCAAAG: the switch fluorescence ratio is 1.12 ± 0.21.

For ATTTGCATGG, the switch fluorescence ratio stood at 1.09 ± 0.2.

For the sequence ATTTGCTCGG, the switch fluorescence ratio came to 1.036 ± 0.0097.

On to ATTTGGCGT, for which the switch fluorescence ratio came out at 1.01 ± 0.018.

On to ATTTGTATTT, for which the switch fluorescence ratio stood at 0.992 ± 0.026.

Turning to ATTTGTCTGG, the switch fluorescence ratio is 0.9643 ± 0.0028.

For the sequence ATTTGTGAAC, the switch fluorescence ratio worked out at 1.02 ± 0.024.

Take ATTTGTGAGG: the switch fluorescence ratio came out at 0.9782 ± 0.0093.

Take ATTTGTTCTG: the switch fluorescence ratio came to 0.962 ± 0.038.

ATTTGTTGCT: the switch fluorescence ratio amounted to 0.981 ± 0.025.

For the sequence ATTTGTTGT, the switch fluorescence ratio amounted to 0.973 ± 0.052.

With ATTTGTTGTG, the switch fluorescence ratio is 1.01 ± 0.041.

Turning to ATTTTAATAA, the switch fluorescence ratio amounted to 0.99 ± 0.017.

Regarding ATTTTAATCG, the switch fluorescence ratio worked out at 0.985 ± 0.03.

Take ATTTTAATGA: the switch fluorescence ratio was found to be 0.934 ± 0.028.

Regarding ATTTTACCTC, the switch fluorescence ratio came to 1.05 ± 0.13.

In the case of ATTTTAGCTC, the switch fluorescence ratio amounted to 0.984 ± 0.015.

As for ATTTTATACA, the switch fluorescence ratio turned out to be 0.996 ± 0.03.

As to ATTTTATAGT, the switch fluorescence ratio amounted to 1 ± 0.055.

As for ATTTTATGGG, the switch fluorescence ratio is 0.999 ± 0.019.

With ATTTTATTAT, the switch fluorescence ratio was found to be 1.01 ± 0.024.

As for ATTTTATTCT, the switch fluorescence ratio is 1.003 ± 0.0076.

Take ATTTTCATAT: the switch fluorescence ratio stood at 0.98 ± 0.021.

Take ATTTTCATTA: the switch fluorescence ratio was found to be 0.996 ± 0.0096.

ATTTTCGCAT: the switch fluorescence ratio stood at 1.19 ± 0.051.

Regarding ATTTTCTATG, the switch fluorescence ratio was found to be 0.978 ± 0.029.

Turning to ATTTTCTTAG, the switch fluorescence ratio was 0.999 ± 0.018.

For the sequence ATTTTGAGGT, the switch fluorescence ratio was 0.987 ± 0.018.

On to ATTTTGATTT, for which the switch fluorescence ratio was determined as 1 ± 0.028.

On to ATTTTGCTCG, for which the switch fluorescence ratio turned out to be 0.999 ± 0.021.

As to ATTTTGCTGG, the switch fluorescence ratio came out at 0.999 ± 0.011.

ATTTTGGCGT: the switch fluorescence ratio was 0.982 ± 0.037.
